According to the supplement of paper PMC9170038:

System: MS2 coat protein
Test: apparent KD of MS2 coat protein; designed switch direction (-1 OFF switch, 1 ON switch): -1; higher = weaker reporter binding
Method in brief: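 An oligonucleotide input, 200 uM small-molecule ligand, or no input was present during titration of SNAP-549-labelled MS2 coat protein, which was doubled from 0.7 or 1.5 nM to 3 µM. Designed RNA switches had been transcribed on Illumina chips by stalled E. coli RNA polymerase. Apparent KD per design is the median over clusters of curves fitted to normalised cluster fluorescence.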

[1] = Eterna round: R95, input ligand: FMN 200 uM
[2] = Eterna round: R95, input ligand: microRNA oligo, concentration not stated
[3] = Eterna round: R95, input ligand: none
[4] = input ligand: microRNA oligo, concentration not stated

Sequence	apparent KD of MS2 coat protein (input ligand: FMN 200 uM) [nM]	apparent KD of MS2 coat protein (input ligand: none) [nM]	apparent KD of MS2 coat protein [1] [nM]	apparent KD of MS2 coat protein [2] [nM]	apparent KD of MS2 coat protein [3] [nM]	apparent KD of MS2 coat protein [4] [nM]
GUGAGUAGUCAGGAUAUGCUGUACAAAAGUACAGCAGAAGGGAUUACAUGAGGAUCACCCAUGUUUACUUCGUG [Omei Ex6 B3] (Eterna round: R97, puzzle: Exclusion 6)	105	29.7	–	–	–	–
CUUUAGUGAGGAUAUGUGGCUUCGAUCGUGAGAUCGAGGCUACAGAAGGCACAUGAGGAUCACCCAUGUUCCUC [jl-ex4-4.01 salish99 mod] (Eterna round: R97, puzzle: Exclusion 4)	464	34.1	–	–	–	–
UUUAAUUUUUUUUUUUUACAAGCUUUUUGCUCGUCUUAUACAUGAGGAUCACCCAUGUAAAUGGGAGGUAAAUUAUC [JMF 71] (puzzle: Sensor v3, turn-off variant 2)	–	–	80.7	133	113	–
CUGGUCCGAGGAUAUAUUAUGUGAUACAUGAGGAUCACCCAUGUUAUAUGAUGGAAAUAAAUAGAAGGCGGACUAG [Mat - Exclusion 5 - JL mod - D67] (puzzle: Exclusion 5)	–	–	79	70.5	69	–
GAGACACAUGAGGAUCACCCAUGUGAGGAUAUCCGAAGGACCAAAUUAAGAAUUAAAGGGAGAAGGCACAUAAA [Exclusion 1 V5] (puzzle: Exclusion 1)	–	–	–	27.2	–	–
ACCUUACAUGAGGAUCACCCAUGUCAGGAUAUCUCGGGCGGCCAAGGGCCGGCCGCCCAGAGAAGGGACGAGGA [Inusla] (puzzle: Exclusion 1)	–	–	–	12.1	–	–
CCAGCAAGUUCAGCUCGUCACAUGAGGAUCACCCAUGUUAAGUAAUCCUUCUCUUCUAGGUAGCGCCGGAGAGAGGG [Eternabot (Original) Solution 16] (Eterna round: R97, puzzle: Sensor, turn-off variant 1)	32.6	43.3	–	–	–	–
AGUACUAACACGAAAGUGUUAGUACAAUAAGCUAGUGGAACAUGAGGAUCACCCAUGUCCUCAUUAGCUCGUCUUAA [Mat - Sensor v3 - Turn-off var 2 - D34] (puzzle: Sensor v3, turn-off variant 2)	–	–	14.2	29.2	15.5	–
CAGUACUGAGGAUAUACAUGAGGAUCACCCAUGUGUUCCAGCUAGGAAACUAGCAUAAGUAGAAGGCAGUACUG [salish99_ex3_r3_091x] (puzzle: Exclusion 3)	–	–	–	21.8	–	–
GAGUGACAUGAGGAUCACCCAUGUGAGGAUAUCGGACGGACCAAAUUAACAACCGCCGCGAGAAGGCACAUCGG [Exclusion 1 V21] (puzzle: Exclusion 1)	–	–	130	144	129	–
ACAUGAGGAUCACCCAUGUCCGGCUGGUCUGUCUCGGCUGUCGAGGAUAUAGCUCGGUAUCCGCGCUAGAAGGCGGGAGCCGGU [Aenatbe mod 91] (Eterna round: R96, puzzle: Exclusion NG 3)	76.7	48.8	–	–	–	29.4
GUACUGACAGGAUAUACAUGAGGAUCACCCAUGUGCCUUAAUGCUACAAAAGUAGCAAGUAGAAGGGUCUGUAC [Omei Ex3 Model Bachelor's Dilema v11] (Eterna round: R97, puzzle: Exclusion 3)	79.7	16.5	–	–	–	–
AUAAAACGUGUAGGAUAUGCGUGGCGAAGCUAUGCAGAAGGACAUGAGGAUCACCCAUGUUCAAGCGUCUGCGUACAGAUGCUA [JL eng1 1.35 mod 6] (Eterna round: R96, puzzle: Exclusion NG 1)	16.9	14.5	–	–	–	14.1
CUGAGCUGAGGAUAUACAUGAGGAUCACCCAUGUGGGCCUGCGAGGUUACUUGCACAUGUAGAAGGCAGUUCGG [Extended Mod of JL - ex3-3.35 Brourd mod] (puzzle: Exclusion 3)	–	–	–	74.4	–	–
UACCUAUAGUAAGGAUAUCAUUGCGAUUAGCUAUGAGAAGGUACACAUGAGGAUCACCCAUGUCCUCCAAUUAACCGAAAGGUA [7th something] (Eterna round: R96, puzzle: Exclusion NG 1)	318	178	–	–	–	170
CUAGCGAUUGUAGGAUAUCGGACUGUUUCAGUCUGAGAAGGACAUGAGGAUCACCCAUGUGAUGCUACGUGAGUAGCACGCUAG [JL ENG1 3.85] (Eterna round: R96, puzzle: Exclusion NG 1)	76.9	30.5	–	–	–	20
AUCAGCUCGUGAGGAUAUAUAUUAACAUGAGGAUCACCCAUGUAAGAUCAGCUUCGGCAGUUAAUAUAGAAGGCACGAGCUGAU [ENG2/14-A2] (Eterna round: R96, puzzle: Exclusion NG 2)	151	114	–	–	–	98.8

Sequence	apparent KD of MS2 coat protein (input ligand: FMN 200 uM) [nM]	apparent KD of MS2 coat protein (input ligand: none) [nM]	apparent KD of MS2 coat protein [1] [nM]	apparent KD of MS2 coat protein [2] [nM]	apparent KD of MS2 coat protein [3] [nM]	apparent KD of MS2 coat protein [4] [nM]
GACUAGGGAGGAUAUAUUUGCAGUGUACCUCGGGUGAUCGCACUUGAGGAUCACCCAAGUAGAAGGCUCGAGGG [EX2 #26] (Eterna round: R97, puzzle: Exclusion 2)	41.9	46.5	–	–	–	–
GGCCGGCGAGGAUAUACCGAAUGAAGGUGAUAUGAAUGAUUACAUGAGGAUCACCCAUGUAGAAGGCGCCGGCC [Default title] (Eterna round: R97, puzzle: Exclusion 2)	327	146	–	–	–	–
GAAUAGGCAGGAUAUACAUGAGGAUCACCCAUGUGCUUGCGAUAGGCACGUGAACAACGUAGAAGGGCCUUAAC [ChP 13.04.2015 #12] (puzzle: Exclusion 3)	–	–	–	28.3	–	–
GAUCCGUUAGGAUAUGCGGGUGUCACCAGAGUGAUAGCCUCGCAGAAGGAACAUGAGGAUCACCCAUGUAGCAA [Eternabot (L1) Solution 92] (Eterna round: R97, puzzle: Exclusion 4)	111	38.6	–	–	–	–
AAGAACCCGGUAGGAUAUAUUGUGGGCAAACAUGGAACAACAUGAGGAUCACCCAUGUAAUUUAGGUAGAAGGGCCAAAAGAGA [Default title] (Eterna round: R96, puzzle: Exclusion NG 2)	80.1	71.4	–	–	–	51.6
GCCGGUCAUGUAGGAUAUGGCCGGCGGUGCCGGCCAGAAGGACAUGAGGAUCACCCAUGUGCCGGCCUUUGGCCGGCACCCGGC (Eterna round: R96, puzzle: Exclusion NG 1)	10.3	17.2	–	–	–	8.76
AAAUAAUAGAUAAAAUAAUACAUGAGGAUCACCCAUGUGGGAUGCUGAGGGUGAUACAAGCUUUUUGCUCGUCUUAU (puzzle: Sensor v3, turn-off variant 1)	–	–	212	19.7	245	–
AGGUCACAUGAGGAUCACCCAUGUCAGGAUAUCGUCACUGGAGCUGCGGCUCCAGUGACGAGAAGGGACAAUUA [E1/6-A3] (Eterna round: R97, puzzle: Exclusion 1)	372	77.2	–	–	–	–
GGAAAGCAAGGAUAUACAAGUAAACGAUGGAAAGUAGAGAGACAUGAGGAUCACCCAUGUAGAAGGUGCGAGAG [JR_Exclu2_Sub036] (puzzle: Exclusion 2)	–	–	24.1	30.1	22.2	–
AUGAGGUUAGGAUAUACAUGAGGAUCACCCAUGUUGAAAGGUUAGAUAGGCGAAGAUGGUAGAAGGAACAAAGA [JR_Exclu3_Sub054] (puzzle: Exclusion 3)	–	–	29.4	38.2	43.9	–
UGAUGACAUGAGGAUCACCCAUGUCAGGAUAUUGAAGUUGAAGUGAAAGCUUCGGCUUCGAGAAGGGACUGUCG [-29.3, -26.3 kcal, A 28% sequence 3] (Eterna round: R97, puzzle: Exclusion 1)	29.5	25	–	–	–	–
CAGUACUGAGGAUAUACAUGAGGAUCACCCAUGUUCUUCGGCUAGGAAACUAGCAAAGGUAGAAGGCAGUACUG [Salish 065 m16] (Eterna round: R97, puzzle: Exclusion 3)	285	15.7	–	–	–	–
CUGGACCGAGGAUAUAUUAUGUGAAACAUGAGGAUCACCCAUGUAAUAUGAUGGAUGUAAAUAGAAGGCGGUCUAG [Mat - Exclusion 5 - JL mod - D28] (puzzle: Exclusion 5)	–	–	34.5	35.1	47.3	–
AUUUUGUCAGGAUAUUGUUAGUUUAGUUGUUUGUAUUAGUUCGAGAAGGGACAUGAGGAUCACCCAUGUGAAAA [Ex4 #71] (Eterna round: R97, puzzle: Exclusion 4)	38.9	37.2	–	–	–	–
GCAGCAUAGUUUACUAACUGUUACAUGAGGAUCACCCAUGUUCAGGAUAUGGUCUGGAUUACAGGCCAGAAGGGAGCAAGCUGC [Eli exng3 - 027] (Eterna round: R96, puzzle: Exclusion NG 3)	13.3	13.8	–	–	–	10.7
GGGAGUGAAGGAUAUACAUGAGGAUCACCCAUGUGGGAGGAGAGAGGUGAGGAGGCUGGUAGAAGGUCAGGAUG [JR_Exclusion3_Sub006] (puzzle: Exclusion 3)	–	–	–	48.3	–	–
ACAUGAGGAUCACCCAUGUCCGGCUGGUCCGUCUCGGCUGUCGAGGAUAUAGCUCGGUGUCCGCGCUAGAAGGCGGGAGCCGGC [Aenatbe mod 83] (Eterna round: R96, puzzle: Exclusion NG 3)	91.5	73.4	–	–	–	64.7
